Tested on: MS2 coat protein
Test: apparent KD of MS2 coat protein; designed switch direction (-1 OFF switch, 1 ON switch): -1; higher = weaker reporter binding
Method in brief: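 Normalised cluster fluorescence was curve-fitted, and each design's median over clusters is its apparent KD. Before this, SNAP-549-labelled MS2 coat protein was titrated from 0.7 or 1.5 nM, doubling to 3 µM, over RNA switches transcribed on Illumina chips by stalled E. coli RNA polymerase. Titrations had no input, 200 uM small-molecule ligand, or an oligonucleotide input, and steps lasted 0.8–1.5 h (lowest) to 10–20 min (highest).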

[1] = Eterna round: R95, input ligand: microRNA oligo, concentration not stated
[2] = input ligand: microRNA oligo, concentration not stated
[3] = Eterna round: R95, input ligand: FMN 200 uM
[4] = Eterna round: R95, input ligand: none

Sequence | apparent KD of MS2 coat protein [1] [nM] | apparent KD of MS2 coat protein (input ligand: FMN 200 uM) [nM] | apparent KD of MS2 coat protein (input ligand: none) [nM] | apparent KD of MS2 coat protein [2] [nM] | apparent KD of MS2 coat protein [3] [nM] | apparent KD of MS2 coat protein [4] [nM]
GUGUACGGAGGAUAUAUGUGGGCAGGCUGACCUGCAGCUUCACAUGAGGAUCACCCAUGUAGAAGGCUGUGCAC [JL-ex2-2.08 Brourd mod] (puzzle: Exclusion 2) | 16.9 | – | – | – | – | –
UGCAGACGAGGAUAUAAAUGAUAUAACAUGAGGAUCACCCAUGUACGAUCGAAUGAUCGUUUAGAAGGCGUCUGCU [E5/11-A3] (Eterna round: R97, puzzle: Exclusion 5) | – | 14.1 | 15.5 | – | – | –
ACACAGCGAGGAUAUACAUGAGGAUCACCCAUGUGGUGGCAGUUACGGUAGGACUAGUGUAGAAGGUGCCGUGG [EX3 #28] (Eterna round: R97, puzzle: Exclusion 3) | – | 600 | 588 | – | – | –
UAGAAUCGAGGAUAUACAUGAGGAUCACCCAUGUGUUGCCGCGUGAUGUGUUUGUCAGGUAGAAGGCGAUUAUA [Exclusion 3 - Mod of Jieux's Gilly Gone Silly 23 v.8] (puzzle: Exclusion 3) | 63.8 | – | – | – | – | –
UGAUCUAGCGGAGGAUAUACAUGAGGAUCACCCAUGUAUAGGCCAUGUGGUGACACGUGGAACAUGUAGAAGGCCGCUAGAUCU [JL ENG2 3.82] (Eterna round: R96, puzzle: Exclusion NG 2) | – | 287 | 77.6 | 73.3 | – | –
GAUCAACAAUCGAGCGGAUACAUGAGGAUCACCCAUGUCCGUAGUCGGGUAAAUAACAAGCUUUUUUCGCCGUCCCU [Eternabot (Original) Solution 42] (Eterna round: R97, puzzle: Sensor, turn-off variant 1) | – | 15.4 | 14.9 | – | – | –
GCUCGUUUUGUCAGGAUAUUGAGUCAGCUUAAGCUCGAGAAGGGACAUGAGGAUCACCCAUGUACCGCACAAUU [BmEX4 B.29] (Eterna round: R97, puzzle: Brourd's mod of Exclusion 4) | – | 16.3 | 11.1 | – | – | –
GACCUGAGGCAAAGCUUUAGGCUUACAUGAGGAUCACCCAUGUAGGAUAUGGUAGGCAAAGCUUACCAGAAGGACAUGGAAAUU [Mat - Exclusion NG 3 - Mod of JL - D25] (Eterna round: R96, puzzle: Exclusion NG 3) | – | 646 | 125 | 98.7 | – | –
UAUAAACAUGAGGAUCACCCAUGUGAGGAUAUCUAAACCAGAGCGGAUCUCUGGACCAAGAGAAGGUGCAUGGU [ElNandoxlusion 10 - Jieux - Exclusion 1] (Eterna round: R97, puzzle: Exclusion 1) | – | 66.9 | 31.7 | – | – | –
CCGUUCCGUGUAGGAUAUUGGCCUUCCUCGGGCCGAGAAGGACAUGAGGAUCACCCAUGUAUGCUAUUAUCGCGCGUGGCGCAC [Design 97] (Eterna round: R96, puzzle: Exclusion NG 1) | – | 158 | 39.1 | 22.6 | – | –
AAAGACAUGAGGAUCACCCAUGUACUGGUGGAGCUCGUGAGGCAGGAUAUCGCGUGCGAAGCUCGCGAGAAGGGCCAGGAAUUU [Cexela] (Eterna round: R96, puzzle: Exclusion NG 3) | – | 416 | 109 | 98.2 | – | –
CCUCUGUCAGGAUAUCGUGCAUACAACGAAAGUUCUAUGUGCGAGAAGGGACAUGAGGAUCACCCAUGUUUGCG [Omei Ex4 A21] (Eterna round: R97, puzzle: Exclusion 4) | – | 225 | 62.5 | – | – | –
UAUUUGCAAGGAUAUGAUUUAAGUAACAUGAGGAUCACCCAUGUUUUUCCGUUGUUAUGUUCAGAAGGUGCGUGAU [JR_E5_Sub020] (puzzle: Exclusion 5) | 50.9 | – | – | – | – | –
CCACGACAUGAGGAUCACCCAUGUGAGGAUAUGACCUGAAAAGCGUGAGCAGUUUGUAUCAGAAGGCGCGUGGG [salish99_ex1_r4_066] (Eterna round: R97, puzzle: Exclusion 1) | – | 54.4 | 67.4 | – | – | –
GAAAAGUGAGGAUAUGGUAAAAAAAAAAGAAAAAAAAAACUCCAGAAGGCACAUGAGGAUCACCCAUGUAAAAG [salish99_ex4_r3_003] (puzzle: Exclusion 4) | 19.5 | – | – | – | 41.9 | 58.6
CUUCGACAUGAGGAUCACCCAUGUCAGGAUAUUGUGUAUCGGGUGUUGGACGGAUAGGCAAGAAGGGAUGUGUG [LRO-Excl1-05] (puzzle: Exclusion 1) | 27.8 | – | – | – | – | –
AAUAAUAAUGUCAGGAUAUCUAGAGCUGCGGCUCUAGAGAAGGGACAUGAGGAUCACCCAUGUCACUCAAUAAU [BmEx4/3-C5] (Eterna round: R97, puzzle: Brourd's mod of Exclusion 4) | – | 22 | 15.1 | – | – | –

Sequence | apparent KD of MS2 coat protein [1] [nM] | apparent KD of MS2 coat protein (input ligand: FMN 200 uM) [nM] | apparent KD of MS2 coat protein (input ligand: none) [nM] | apparent KD of MS2 coat protein [2] [nM] | apparent KD of MS2 coat protein [3] [nM] | apparent KD of MS2 coat protein [4] [nM]
ACAUGAGGAUCACCCAUGUCGAGUACAUGAGGAUCACCCAUGUAGGAUAUGGUUCGCUUUGCGUGCUAGAAGGAUAUGUGUUGC [salish99_ExNG3_r04_509] (Eterna round: R96, puzzle: Exclusion NG 3) | – | 351 | 241 | 199 | – | –
UUUUUACAUGAGGAUCACCCAUGUCAGGAUAUCCUUAUAUUUUAUUAUUUUAUUUUUUGGAGAAGGGACUAUUA [My solution] (Eterna round: R96, puzzle: Exclusion 1) | – | 362 | 322 | 282 | – | –
UAUUAUCAAGUAAGAUCCUACAUGAGGAUCACCCAUGUGCUCGUCUUAUAAGGUACUGUGACGAAAGUCACGGUACC [Sensor 3, v1 - 74] (puzzle: Sensor v3, turn-off variant 1) | 332 | – | – | – | 31.3 | 33.8
UCGGCGCGAGGAUAUGCGGUUUGUGCUUUGGGCCCUCGCGUACAUGAGGAUCACCCAUGUAGAAGGCGCGCCGC [Apr-15 SS2-46] (puzzle: Exclusion 2) | 95.6 | – | – | – | – | –
UGUUGUCGCGCAGGAUAUGUAUGAGGAUCACCCAUUAAUAAAUUUUAACCACGAGGAUCACCCGUGUAGAAGGGCGGGACAACA [pwkr exNG2 2xF5 1xFMN.15] (Eterna round: R96, puzzle: Exclusion NG 2) | – | 30.8 | 29.5 | 18.3 | – | –
GCCGAAAAUGUGAGGAUAUACCUAUGGAAACAUAGGUAGAAGGCACAUGAGGAUCACCCAUGUCCAAUAACGGC [Mat - Exclusion 4 - Eli Mod - D25] (Eterna round: R97, puzzle: Brourd's mod of Exclusion 4) | – | 664 | 287 | – | – | –
AUAAAUCAUGUAGGAUAUGCGUGGAGAAGCUAUGCAGAAGGACAUGAGGAUCACCCAUGUGCUUCCGUCUGCGUACAGACGGAA [Mat - Exclusion NG 1 - Mod of JL - D36] (Eterna round: R96, puzzle: Exclusion NG 1) | – | 38 | 131 | 89.2 | – | –
ACAUGAGGAUCACCCAUGUACACGUAAUGGCUCAUGUAGAGUGAGGAUAUGUGUGACGAACGAGCACAGAAGGCACAAGACUGG [Deportation 12 - Jieux - Exclusion NG 3] (Eterna round: R96, puzzle: Exclusion NG 3) | – | 51.8 | 40.2 | 39.8 | – | –
CCAAGCAAAAUCAUUAACAACAUGAGGAUCACCCAUGUGUAAGCAAUUAUGUUUGGGCUCUUUAGAGCUCGUCUUAU [JR_STOV1_Sub044] (Eterna round: R97, puzzle: Sensor, turn-off variant 1) | – | 13.5 | 14.2 | – | – | –
UAUUAGUAAGGAUAUGCGACGUAGGACGAAAGUCCUACGUCGCAGAAGGUACAUGAGGAUCACCCAUGUCUAUU [Mod of Fisker 11 - Jieux - Exclusion 4] (Eterna round: R97, puzzle: Exclusion 4) | – | 20.5 | 18.7 | – | – | –
CUUAAGGCAGGAUAUGCUUUUUGUGACAUGAGGAUCACCCAUGUGAUGCAGUUUGGGUGUGCAGAAGGGCCUGAGU [JR_E5_Sub033] (puzzle: Exclusion 5) | 378 | – | – | – | – | –
AGUCGGUCAGGAUAUGCAAACGUAGACAUGAGGAUCACCCAUGUAACGUGGGCCUGGUUUGUAGAAGGGACGAGCA [EX5 #85] (Eterna round: R97, puzzle: Exclusion 5) | – | 38.2 | 28.2 | – | – | –
AGUCCUGGAGUUAGGAUAUGGUGUAUCGCUGCGCUUCAGAAGGGACUUGAGGAUCACCCAAGUAGCCGUGAGGG [salish99_bmod_ex4_r4_007] (Eterna round: R97, puzzle: Brourd's mod of Exclusion 4) | – | 49.9 | 60.2 | – | – | –
UACCUAUAGGUAGGAUAUCAUUGCGAUUAGCUAUGAGAAGGACCACAUGAGGAUCACCCAUGUCCUCCAAUUAACCGAAAGGUA [Fiskers ExNg1 - 2] (Eterna round: R96, puzzle: Exclusion NG 1) | – | 77.3 | 50.4 | 39.7 | – | –
CUUUUGUGAGGAUAUCAGUAGUAUAAAAUAAAAUAUACUACUGAGAAGGCACAUGAGGAUCACCCAUGUUCCUC [Mat - Exclusion 4 - Mod of Salish - D71] (puzzle: Exclusion 4) | 38.5 | – | – | – | – | –
GACUGACAUGAGGAUCACCCAUGUAAGGAUAUAGGGAACGUCGUUCCGCAACCCGCGCCUAGAAGGUACAAGGU [EX1 C.11] (Eterna round: R97, puzzle: Exclusion 1) | – | 18.2 | 16.1 | – | – | –
AGUACUGACACGUCGGUGUUAGUACAAUAAGCUUGUGAAACAUGAGGAUCACCCAUGUCCUCAUAAGCUCGUCUUAU [salish99_TOv2_r3_081] (puzzle: Sensor v3, turn-off variant 2) | 659 | – | – | – | 17 | 15
